Key:
[1] = target: T1, human DLL3 (purchased from Kaixia, Cat. No DLL-HM103) (human, UniProt Q9NYJ7 27-492, limits assumed); assay: SPR (Biacore 8K), bispecific captured by anti-human Fc on CM5, DLL3 as analyte, 1:1 Langmuir fit
T1 construct: Bought recombinant protein; also called human DLL3 protein
T1 sequence (looked up): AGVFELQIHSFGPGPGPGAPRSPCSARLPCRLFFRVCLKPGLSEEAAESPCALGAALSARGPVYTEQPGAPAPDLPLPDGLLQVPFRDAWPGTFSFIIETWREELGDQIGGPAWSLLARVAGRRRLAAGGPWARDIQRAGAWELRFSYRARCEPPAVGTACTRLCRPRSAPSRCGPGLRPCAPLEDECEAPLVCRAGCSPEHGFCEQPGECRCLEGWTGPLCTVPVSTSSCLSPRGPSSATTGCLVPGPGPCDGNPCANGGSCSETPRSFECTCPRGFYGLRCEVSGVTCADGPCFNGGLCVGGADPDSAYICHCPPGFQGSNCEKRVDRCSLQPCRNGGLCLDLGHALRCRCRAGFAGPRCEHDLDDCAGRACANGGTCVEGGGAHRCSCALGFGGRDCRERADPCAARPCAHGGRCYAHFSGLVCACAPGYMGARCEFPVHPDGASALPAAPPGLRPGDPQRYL

[2] = target: T2, cynomolgus DLL3 (purchased from Kaixia, Cat. No. DLL-RM103) (cynomolgus, UniProt A0A2K5WSR1 27-490); assay: as above
T2 construct: Bought recombinant protein
T2 sequence: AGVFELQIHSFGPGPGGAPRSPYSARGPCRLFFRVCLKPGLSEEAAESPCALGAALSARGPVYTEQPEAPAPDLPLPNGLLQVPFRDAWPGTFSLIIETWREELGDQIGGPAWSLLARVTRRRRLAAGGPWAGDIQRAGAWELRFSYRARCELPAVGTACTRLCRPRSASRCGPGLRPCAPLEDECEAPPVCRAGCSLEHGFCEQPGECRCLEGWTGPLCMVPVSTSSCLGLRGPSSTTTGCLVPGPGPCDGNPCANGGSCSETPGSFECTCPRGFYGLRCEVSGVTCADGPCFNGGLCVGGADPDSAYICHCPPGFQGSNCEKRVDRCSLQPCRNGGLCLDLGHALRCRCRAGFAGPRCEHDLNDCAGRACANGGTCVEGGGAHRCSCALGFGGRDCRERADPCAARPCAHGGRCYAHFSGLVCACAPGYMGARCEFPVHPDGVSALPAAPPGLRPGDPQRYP

[3] = target: T3, cynomolgus CD3 (purchased from Acro, Cat. No. CDD-C52W4) (cynomolgus, UniProt Q95LI5 22-117); assay: SPR (Biacore 8K), CD3 immobilised directly on CM5, bispecific as analyte, 1:1 Langmuir fit
T3 sequence (looked up): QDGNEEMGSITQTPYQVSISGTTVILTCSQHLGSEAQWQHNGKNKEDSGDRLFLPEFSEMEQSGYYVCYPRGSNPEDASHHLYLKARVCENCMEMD

[4] = target: human CD3 (purchased from Acro, Cat. No. CDD-H52W1) (human, UniProt P07766 23-126); assay: as above
human CD3 (purchased from Acro, Cat. No. CDD-H52W1), sequence (P07766 23-126): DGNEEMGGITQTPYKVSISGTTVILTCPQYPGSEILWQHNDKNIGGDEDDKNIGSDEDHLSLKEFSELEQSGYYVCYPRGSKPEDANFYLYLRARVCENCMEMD

[5] = target: T4, human DLL3 (hDLL3) expressed on tumor cells (human, UniProt Q9NYJ7 27-618); assay: cell-based or functional assay
T4 sequence (looked up): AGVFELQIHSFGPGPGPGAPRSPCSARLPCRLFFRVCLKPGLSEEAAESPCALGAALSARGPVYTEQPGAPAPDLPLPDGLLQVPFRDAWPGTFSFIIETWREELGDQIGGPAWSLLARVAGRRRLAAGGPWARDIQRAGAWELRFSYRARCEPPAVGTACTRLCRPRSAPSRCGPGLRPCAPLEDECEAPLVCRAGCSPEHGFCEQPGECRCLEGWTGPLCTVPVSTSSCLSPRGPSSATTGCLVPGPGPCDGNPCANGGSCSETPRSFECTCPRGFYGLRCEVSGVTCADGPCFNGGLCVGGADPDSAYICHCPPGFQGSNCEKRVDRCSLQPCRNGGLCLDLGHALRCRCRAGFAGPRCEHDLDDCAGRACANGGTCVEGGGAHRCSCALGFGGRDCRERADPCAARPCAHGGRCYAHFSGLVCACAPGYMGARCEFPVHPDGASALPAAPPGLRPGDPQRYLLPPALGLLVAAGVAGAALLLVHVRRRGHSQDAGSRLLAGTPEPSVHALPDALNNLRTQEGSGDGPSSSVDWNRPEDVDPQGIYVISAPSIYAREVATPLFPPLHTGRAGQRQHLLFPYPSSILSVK

[6] = target: T5, human CD3 (hCD3) naturally expressed on Jurkat cells (human, UniProt P07766 23-207); assay: flow cytometry (FACS) on Jurkat cells naturally expressing hCD3
T5 construct: whole, on cells; on the cells it is part of the whole TCR/CD3 complex; also called Jurkat cell line
T5 sequence (P07766 23-207): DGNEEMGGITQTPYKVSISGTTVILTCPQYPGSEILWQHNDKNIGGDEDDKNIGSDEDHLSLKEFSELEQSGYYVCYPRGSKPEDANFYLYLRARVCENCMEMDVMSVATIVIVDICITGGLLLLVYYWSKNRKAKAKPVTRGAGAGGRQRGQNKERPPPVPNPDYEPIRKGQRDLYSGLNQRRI

[7] = target: T4, human DLL3 (hDLL3) expressed on tumor …; assay: flow cytometry (FACS) on SHP-77 cells expressing hDLL3

B1: Bispecific antibody 2 (bispecific antibody, IgG1)
heavy: not shown
chain: DKTHTCPPCPAPEAAGGPSVFLFPPKPKDTLMISRTPEVTCVVVDVSHEDPEVKFNWYVDGVEVHNAKTKPREEQYNSTYRVVSVLTVLHQDWLNGKEYKCKVSNKALPAPIEKTISKAKGQPREPQVCTLPPSRDELTKNQVSLSCAVKGFYPSDIAVEWESNGQPENNYKTTPPVLDSDGSFFLVSKLTVDKSRWQQGNVFSCSVMHEALHNRYTQKSLSLSPGK
light: EIVLTQSPATLSLSPGERATLSCRASQSINNNLHWYQQKPGQAPRLLIKYVSQSISGIPARFSGSGSGTDFTLTISSLEPEDFAVYYCQQTNAWPLTFGGGTKLEIKRTVAAPSVFIFPPSDEQLKSGTASVVCLLNNFYPREAKVQWKVDNALQSGNSQESVTEQDSKDSTYSLSSTLTLSKADYEKHKVYACEVTHQGLSSPVTKSFNRGEC
notes: Knob heavy chain: DLL3 VH-CH1-(G4S)3-CD3 scFv-EPKSS-IgG1 Fc (S354C, T366W, L234A/L235A); Hole chain: Fc only (Y349C, T366S, L368A, Y407V, H435R); Light chain: that of H2-39E2D11-NA; also called anti-CD3-DLL3 bispecific antibody
In the case of B1, the Kd [1] is reported as 0.647 nM, the koff [1] is reported as 7.92e-05 s⁻¹ and the kon [1] is reported as 122000 M⁻¹ s⁻¹. The Kd [2] was 0.887 nM, the koff [2] was 8.6e-05 s⁻¹ and the kon [2] was 97000 M⁻¹ s⁻¹. The Kd [3] was 11.1 nM, the koff [3] was 0.00405 s⁻¹ and the Kd [4] was 9.09 nM. For the same binder, the koff [4] was 0.00414 s⁻¹, the “TDCC EC50 (nM), NCI-H82 cell line” value [5] was 80.2 nM and the “TDCC EC50 (nM), SHP-77 cell line” value [5] was 136 nM. The EC50 [6] was 57.9 nM and the EC50 [7] was 3.11 nM.

From patent US20250136680A1 (SHANGHAI QILU PHARMACEUTICAL RESEARCH AND DEVELOPMENT CENTRE, published 2025)
